Measured values reported in the RNAGym collection of RNA variant scans (doi:10.1073/pnas.2313332121).

B1: TPR t1 (parent)
chain: GACCAAUCUGCCCUCAGAGCUCGAGAACAUCUUCGGAUGCAGAGGAGGCAGGCUUCGGUGGCGCGAUAGCGCCAACGUCCUCAACCUCCAAUGCAUCCCACCACAUGAUGAUGCCUGAAGAGCCUUGGUUUUUUG

Variants of: B1
Assay: polymerase ribozyme fitness, log enrichment relative to wild type (log ratio); higher = more active; in vitro selection for triplet polymerase activity
Summary of the method: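 For each subunit of a heterodimeric triplet polymerase ribozyme, a mutant library was built by PCR and transcribed, then taken through a single in vitro selection round in triplicate. Selection involved annealing to a biotinylated primer, the partner subunit and triplets, incubation frozen at −7 °C, gel excision of extended constructs, capture on streptavidin beads and RT-PCR. Genotypes were retained after Illumina sequencing of inputs and outputs only with ≥10 input reads and ≥1 read in each output. Fitness is defined as the logarithm of a genotype's enrichment relative to wild-type enrichment, using inverse-variance-weighted averages across replicates, with the logarithm taken to base 2.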

| Variant | polymerase ribozyme fitness (log ratio) |
| --- | --- |
| G52C C53U G71U | -0.538 |
| G51U G52A C79A | -5.44 |
| G51U G58C G113C | -5.43 |
| G52C C70U C72U G117U | -4.23 |
| G51U U54A C89U U129C | -2.82 |
| G51A U54G C72G C80A C82G | -4.89 |
| G52A C70U C104A C124G | -3.65 |
| G52C G63C C85U C104U | -3.03 |
| G52C U59G A118G | -0.37 |
| G51A G69C U112A | -5.2 |
| G51U U55A C64U C114G C115U C123U | -7.28 |
| G51C G57C C73A G77U U78G | -3.02 |
| G51C G93C | -4.73 |
| G52U C56A | -1.92 |
| G52U U54G G69C | -4.27 |
| G52U G63A G93A | -1.45 |
| G51U C64G U112G | -6.95 |
| C53A C76U U87C | -0.534 |
| G51U C72U U106A | -3.68 |
| G52A C72G A95C | -2 |
| G52U C70U G113U | -5.82 |

| Variant | polymerase ribozyme fitness (log ratio) |
| --- | --- |
| C53A C64U C99U U133G | -4.1 |
| G52A A111C | 0.197 |
| G52U U67G C101U G120C | -6.94 |
| G52U U54G | -1.03 |
| G52C A83C A118G U131A | -0.732 |
| G51C C53A | -4.19 |
| G52C G117A | -1.64 |
| G51A G57U | -1.5 |
| G51U G61U C80A G127U | -1.14 |
| G51C C70G U109G | -7.25 |
| G51U C56A C62U U92A C101U | -6.34 |
| G51C G63U A84U U112G U132A | -5.83 |
| G52C U59C G60U A66G | -5.6 |
| G52U U55C C79U | -0.237 |
| G51C U130A | -3.62 |
| G52U U129A | -1.63 |
| G51U U109A G128U | -5.92 |
| G52C G61A C72U | -0.0205 |
| G52U C72A C86A G113A G122C | -4.85 |
| G52A G57A | -1.07 |
| G52U C62G C89G U109C A111U | -6.22 |

| Variant | polymerase ribozyme fitness (log ratio) |
| --- | --- |
| G51C C101U | -3.94 |
| G52A G77U G93A G122U | -2.45 |
| G52U C64U U132A | -1.1 |
| C53A C62A U125C | -6.14 |
| G52U C73U C104G C115A | -6.56 |
| G52A C62U C79G | -0.394 |
| G52U U112G | -0.37 |
| G52U U92C C114G | -5.11 |
| G52A C85G | -1.03 |
| G52A C98A | -4.54 |
| G51C C99U | -7.54 |
| G52A U126C | -1.17 |
| G51U C56A C98U C99U C124A U131G | -6.41 |
| G52A A84U U131G | -0.974 |
| G52U C79A | -1.05 |
| G52A G63A C73U U81C C114A | -7.55 |
| G51U G120U | -3.69 |
| G51U G120C | -2.42 |
| G52U C56U A84U | -1.37 |
| G52A G60A C79A C115A U132A | -0.536 |
| G52A G58U C73G | -0.432 |

| Variant | polymerase ribozyme fitness (log ratio) |
| --- | --- |
| G51U G52C U96C | -3.75 |
| G52U A121C G127A | -0.484 |
| G52C C73U G110U | -2.38 |
| G51U G69U U87G | -0.427 |
| G52A C53U | -0.621 |
| G52A C53A | -0.436 |
| G52A A118U | 0.938 |
| G52C U67A C70A G117C | -6.05 |
| G52C C70U C76U U106A | -2.68 |
| G52U C115A | -0.782 |
| G52C G61C | -3.04 |
| G52C U96C G110U | -1.98 |
| G52A G69C C104U G113C | -4.79 |
| G51A G61U | -2.94 |
| G51A G61C | -3.7 |
| G52U G61A G110U | -2 |
| G52A C73A | -0.179 |
| G52A C73G | -2.63 |
| G51U G60A C123U | -1.47 |
| G51U G61C G117C U131G | -7.34 |
